The MegaScale stability set (Tsuboyama et al. 2023)

B1: r4_43_TrROS_Hall (parent)
chain: DLVTIKVPLENLEEIKKAAEKAGFKIVSISYDKENKEVTIVIEKKK

Variants of: B1
Assay: folding stability dG (cDNA display proteolysis); higher = more stable
Conditions: PBS, room temperature

Variant | folding stability dG
DLVTIKVPLENLEEIKKAAEKAGFKIVSISWDKENKEVTIVIEKKK [Y31W] | 3.55 kcal/mol
DLVTIKVPLENLEEIKKAAEKAGFKIVSISSDKENKEVTIVIEKKK [Y31S] | 2.83 kcal/mol
DLVTIKVPLENLEEIKKAAEKAGFKIVSISRDKENKEVTIVIEKKK [Y31R] | 3.39 kcal/mol
DLVTIKVPLENLEEIKKAAEKAGFKIVSISVDKENKEVTIVIEKKK [Y31V] | 3.47 kcal/mol
DLVTIKVPLENLEEIKKAAEKAGFKIVSISTDKENKEVTIVIEKKK [Y31T] | 3.15 kcal/mol
DLVTIKVPLENLEEIKKAAEKAGFKIVSISYRKENKEVTIVIEKKK [D32R] | 2.93 kcal/mol
DLVTIKVPLENLEEIKKAAEKAGFKIVSISYCKENKEVTIVIEKKK [D32C] | 3.85 kcal/mol
DLVTIKVPLENLEEIKKAAEKAGFKIVSISYEKENKEVTIVIEKKK [D32E] | 3.62 kcal/mol
DLVTIKVPLENLEEIKKAAEKAGFKIVSISYLKENKEVTIVIEKKK [D32L] | 3.21 kcal/mol
DLVTIKVPLENLEEIKKAAEKAGFKIVSISYGKENKEVTIVIEKKK [D32G] | 3.82 kcal/mol
DLVTIKVPLENLEEIKKAAEKAGFKIVSISYMKENKEVTIVIEKKK [D32M] | 3.48 kcal/mol
DLVTIKVPLENLEEIKKAAEKAGFKIVSISYTKENKEVTIVIEKKK [D32T] | 3.81 kcal/mol
DLVTIKVPLENLEEIKKAAEKAGFKIVSISYSKENKEVTIVIEKKK [D32S] | 4.21 kcal/mol
DLVTIKVPLENLEEIKKAAEKAGFKIVSISYIKENKEVTIVIEKKK [D32I] | 3.39 kcal/mol
DLVTIKVPLENLEEIKKAAEKAGFKIVSISYNKENKEVTIVIEKKK [D32N] | 4.06 kcal/mol
DLVTIKVPLENLEEIKKAAEKAGFKIVSISYWKENKEVTIVIEKKK [D32W] | 3.62 kcal/mol
DLVTIKVPLENLEEIKKAAEKAGFKIVSISYFKENKEVTIVIEKKK [D32F] | 3.67 kcal/mol
DLVTIKVPLENLEEIKKAAEKAGFKIVSISYAKENKEVTIVIEKKK [D32A] | 3.54 kcal/mol
DLVTIKVPLENLEEIKKAAEKAGFKIVSISYYKENKEVTIVIEKKK [D32Y] | 3.65 kcal/mol
DLVTIKVPLENLEEIKKAAEKAGFKIVSISYVKENKEVTIVIEKKK [D32V] | 3.33 kcal/mol
DLVTIKVPLENLEEIKKAAEKAGFKIVSISYHKENKEVTIVIEKKK [D32H] | 3.67 kcal/mol
DLVTIKVPLENLEEIKKAAEKAGFKIVSISYKKENKEVTIVIEKKK [D32K] | 3.04 kcal/mol
DLVTIKVPLENLEEIKKAAEKAGFKIVSISYQKENKEVTIVIEKKK [D32Q] | 3.56 kcal/mol

Variant | folding stability dG
DLVTIKVPLENLEEIKKAAEKAGFKIVSISYPKENKEVTIVIEKKK [D32P] | 2.77 kcal/mol
DLVTIKVPLENLEEIKKAAEKAGFKIVSISYDKENVEVTIVIEKKK [K36V] | 3.32 kcal/mol
DLVTIKVPLENLEEIKKAAEKAGFKIVSISYDKENQEVTIVIEKKK [K36Q] | 3.48 kcal/mol
DLVTIKVPLENLEEIKKAAEKAGFKIVSISYDKENGEVTIVIEKKK [K36G] | 3.64 kcal/mol
DLVTIKVPLENLEEIKKAAEKAGFKIVSISYDKENIEVTIVIEKKK [K36I] | 3.54 kcal/mol
DLVTIKVPLENLEEIKKAAEKAGFKIVSISYDKENMEVTIVIEKKK [K36M] | 3.22 kcal/mol
DLVTIKVPLENLEEIKKAAEKAGFKIVSISYDKENCEVTIVIEKKK [K36C] | 3.19 kcal/mol
DLVTIKVPLENLEEIKKAAEKAGFKIVSISYDKENTEVTIVIEKKK [K36T] | 3.48 kcal/mol
DLVTIKVPLENLEEIKKAAEKAGFKIVSISYDKENNEVTIVIEKKK [K36N] | 3.51 kcal/mol
DLVTIKVPLENLEEIKKAAEKAGFKIVSISYDKENREVTIVIEKKK [K36R] | 3.88 kcal/mol
DLVTIKVPLENLEEIKKAAEKAGFKIVSISYDKENLEVTIVIEKKK [K36L] | 3.71 kcal/mol
DLVTIKVPLENLEEIKKAAEKAGFKIVSISYDKENSEVTIVIEKKK [K36S] | 3.46 kcal/mol
DLVTIKVPLENLEEIKKAAEKAGFKIVSISYDKENYEVTIVIEKKK [K36Y] | 3.61 kcal/mol
DLVTIKVPLENLEEIKKAAEKAGFKIVSISYDKENHEVTIVIEKKK [K36H] | 3.4 kcal/mol
DLVTIKVPLENLEEIKKAAEKAGFKIVSISYDKENFEVTIVIEKKK [K36F] | 3.48 kcal/mol
DLVTIKVPLENLEEIKKAAEKAGFKIVSISYDKENDEVTIVIEKKK [K36D] | 3.28 kcal/mol
DLVTIKVPLENLEEIKKAAEKAGFKIVSISYDKENWEVTIVIEKKK [K36W] | 3.66 kcal/mol
DLVTIKVPLENLEEIKKAAEKAGFKIVSISYDKENEEVTIVIEKKK [K36E] | 3.22 kcal/mol
DLVTIKVPLENLEEIKKAAEKAGFKIVSISYDKENAEVTIVIEKKK [K36A] | 3.57 kcal/mol
DLVTIKVPLENLEEIKKAAEKAGFKIVSISYDKENPEVTIVIEKKK [K36P] | 3.39 kcal/mol
DLVTIKVPLENLEEIKKAAEKAGFKIVSISYDKENKGVTIVIEKKK [E37G] | 3.72 kcal/mol
DLVTIKVPLENLEEIKKAAEKAGFKIVSISYDKENKQVTIVIEKKK [E37Q] | 3.59 kcal/mol
DLVTIKVPLENLEEIKKAAEKAGFKIVSISYDKENKHVTIVIEKKK [E37H] | 3.86 kcal/mol

Variant | folding stability dG
DLVTIKVPLENLEEIKKAAEKAGFKIVSISYDKENKKVTIVIEKKK [E37K] | 3.45 kcal/mol
DLVTIKVPLENLEEIKKAAEKAGFKIVSISYDKENKIVTIVIEKKK [E37I] | 3.85 kcal/mol
DLVTIKVPLENLEEIKKAAEKAGFKIVSISYDKENKDVTIVIEKKK [E37D] | 3.49 kcal/mol
DLVTIKVPLENLEEIKKAAEKAGFKIVSISYDKENKNVTIVIEKKK [E37N] | 3.62 kcal/mol
DLVTIKVPLENLEEIKKAAEKAGFKIVSISYDKENKLVTIVIEKKK [E37L] | 3.62 kcal/mol
DLVTIKVPLENLEEIKKAAEKAGFKIVSISYDKENKPVTIVIEKKK [E37P] | 2.62 kcal/mol
DLVTIKVPLENLEEIKKAAEKAGFKIVSISYDKENKMVTIVIEKKK [E37M] | 3.64 kcal/mol
DLVTIKVPLENLEEIKKAAEKAGFKIVSISYDKENKAVTIVIEKKK [E37A] | 3.75 kcal/mol
DLVTIKVPLENLEEIKKAAEKAGFKIVSISYDKENKCVTIVIEKKK [E37C] | 3.8 kcal/mol
DLVTIKVPLENLEEIKKAAEKAGFKIVSISYDKENKFVTIVIEKKK [E37F] | 3.93 kcal/mol
DLVTIKVPLENLEEIKKAAEKAGFKIVSISYDKEKKEVTIVIEKKK [N35K] | 3.17 kcal/mol
DLVTIKVPLENLEEIKKAAEKAGFKIVSISYDKEVKEVTIVIEKKK [N35V] | 3.17 kcal/mol
DLVTIKVPLENLEEIKKAAEKAGFKIVSISYDKEAKEVTIVIEKKK [N35A] | 3.24 kcal/mol
DLVTIKVPLENLEEIKKAAEKAGFKIVSISYDKEHKEVTIVIEKKK [N35H] | 3.54 kcal/mol
DLVTIKVPLENLEEIKKAAEKAGFKIVSISYDKEIKEVTIVIEKKK [N35I] | 3.52 kcal/mol
DLVTIKVPLENLEEIKKAAEKAGFKIVSISYDKERKEVTIVIEKKK [N35R] | 3.98 kcal/mol
DLVTIKVPLENLEEIKKAAEKAGFKIVSISYDKEFKEVTIVIEKKK [N35F] | 3.5 kcal/mol
DLVTIKVPLENLEEIKKAAEKAGFKIVSISYDKEEKEVTIVIEKKK [N35E] | 3.47 kcal/mol
DLVTIKVPLENLEEIKKAAEKAGFKIVSISYDKEYKEVTIVIEKKK [N35Y] | 3.72 kcal/mol
DLVTIKVPLENLEEIKKAAEKAGFKIVSISYDKELKEVTIVIEKKK [N35L] | 3.47 kcal/mol
DLVTIKVPLENLEEIKKAAEKAGFKIVSISYDKEWKEVTIVIEKKK [N35W] | 3.75 kcal/mol
DLVTIKVPLENLEEIKKAAEKAGFKIVSISYDKEPKEVTIVIEKKK [N35P] | 3.2 kcal/mol
DLVTIKVPLENLEEIKKAAEKAGFKIVSISYDKESKEVTIVIEKKK [N35S] | 3.55 kcal/mol

Variant | folding stability dG
DLVTIKVPLENLEEIKKAAEKAGFKIVSISYDKETKEVTIVIEKKK [N35T] | 3.4 kcal/mol
DLVTIKVPLENLEEIKKAAEKAGFKIVSISYDKEDKEVTIVIEKKK [N35D] | 3.73 kcal/mol
DLVTIKVPLENLEEIKKAAEKAGFKIVSISYDKEGKEVTIVIEKKK [N35G] | 3.61 kcal/mol
DLVTIKVPLENLEEIKKAAEKAGFKIVSISYDKEMKEVTIVIEKKK [N35M] | 3.93 kcal/mol
DLVTIKVPLENLEEIKKAAEKAGFKIVSISYDKEQKEVTIVIEKKK [N35Q] | 3.54 kcal/mol
DLVTIKVPLENLEEIKKAAEKAGFKIVSISYDPENKEVTIVIEKKK [K33P] | 2.94 kcal/mol
DLVTIKVPLENLEEIKKAAEKAGFKIVSISYDWENKEVTIVIEKKK [K33W] | 3.76 kcal/mol
DLVTIKVPLENLEEIKKAAEKAGFKIVSISYDCENKEVTIVIEKKK [K33C] | 3.44 kcal/mol
DLVTIKVPLENLEEIKKAAEKAGFKIVSISYDMENKEVTIVIEKKK [K33M] | 3.72 kcal/mol
DLVTIKVPLENLEEIKKAAEKAGFKIVSISYDSENKEVTIVIEKKK [K33S] | 3.5 kcal/mol
DLVTIKVPLENLEEIKKAAEKAGFKIVSISYDAENKEVTIVIEKKK [K33A] | 3.49 kcal/mol
DLVTIKVPLENLEEIKKAAEKAGFKIVSISYDVENKEVTIVIEKKK [K33V] | 3.73 kcal/mol
DLVTIKVPLENLEEIKKAAEKAGFKIVSISYDRENKEVTIVIEKKK [K33R] | 3.93 kcal/mol
DLVTIKVPLENLEEIKKAAEKAGFKIVSISYDLENKEVTIVIEKKK [K33L] | 3.8 kcal/mol
DLVTIKVPLENLEEIKKAAEKAGFKIVSISYDYENKEVTIVIEKKK [K33Y] | 3.42 kcal/mol
DLVTIKVPLENLEEIKKAAEKAGFKIVSISYDHENKEVTIVIEKKK [K33H] | 3.73 kcal/mol
DLVTIKVPLENLEEIKKAAEKAGFKIVSISYDEENKEVTIVIEKKK [K33E] | 3.43 kcal/mol
DLVTIKVPLENLEEIKKAAEKAGFKIVSISYDGENKEVTIVIEKKK [K33G] | 3.28 kcal/mol
DLVTIKVPLENLEEIKKAAEKAGFKIVSISYDNENKEVTIVIEKKK [K33N] | 3.74 kcal/mol
DLVTIKVPLENLEEIKKAAEKAGFKIVSISYDQENKEVTIVIEKKK [K33Q] | 3.83 kcal/mol
DLVTIKVPLENLEEIKKAAEKAGFKIVSISYDFENKEVTIVIEKKK [K33F] | 3.61 kcal/mol
DLVTIKVPLENLEEIKKAAEKAGFKIVSISYDTENKEVTIVIEKKK [K33T] | 3.41 kcal/mol
DLVTIKVPLENLEEIKKAAEKAGFKIVSISYDIENKEVTIVIEKKK [K33I] | 3.85 kcal/mol

Variant | folding stability dG
DLVTIKVPLENLEEIKKAAEKAGFKIVSISYDDENKEVTIVIEKKK [K33D] | 3.11 kcal/mol
DLVTIKVPLENLEEIKKAAEKAGFKIVSISYDKINKEVTIVIEKKK [E34I] | 3.88 kcal/mol
DLVTIKVPLENLEEIKKAAEKAGFKIVSISYDKHNKEVTIVIEKKK [E34H] | 3.92 kcal/mol
DLVTIKVPLENLEEIKKAAEKAGFKIVSISYDKYNKEVTIVIEKKK [E34Y] | 3.81 kcal/mol
DLVTIKVPLENLEEIKKAAEKAGFKIVSISYDKLNKEVTIVIEKKK [E34L] | 4.04 kcal/mol
DLVTIKVPLENLEEIKKAAEKAGFKIVSISYDKKNKEVTIVIEKKK [E34K] | 3.83 kcal/mol
DLVTIKVPLENLEEIKKAAEKAGFKIVSISYDKCNKEVTIVIEKKK [E34C] | 3.63 kcal/mol
DLVTIKVPLENLEEIKKAAEKAGFKIVSISYDKANKEVTIVIEKKK [E34A] | 3.48 kcal/mol
DLVTIKVPLENLEEIKKAAEKAGFKIVSISYDKMNKEVTIVIEKKK [E34M] | 3.74 kcal/mol
DLVTIKVPLENLEEIKKAAEKAGFKIVSISYDKNNKEVTIVIEKKK [E34N] | 3.77 kcal/mol
DLVTIKVPLENLEEIKKAAEKAGFKIVSISYDKWNKEVTIVIEKKK [E34W] | 3.96 kcal/mol
DLVTIKVPLENLEEIKKAAEKAGFKIVSISYDKGNKEVTIVIEKKK [E34G] | 3.8 kcal/mol
DLVTIKVPLENLEEIKKAAEKAGFKIVSISYDKRNKEVTIVIEKKK [E34R] | 3.84 kcal/mol
DLVTIKVPLENLEEIKKAAEKAGFKIVSISYDKTNKEVTIVIEKKK [E34T] | 3.77 kcal/mol
DLVTIKVPLENLEEIKKAAEKAGFKIVSISYDKFNKEVTIVIEKKK [E34F] | 3.67 kcal/mol
DLVTIKVPLENLEEIKKAAEKAGFKIVSISYDKPNKEVTIVIEKKK [E34P] | 3.68 kcal/mol
DLVTIKVPLENLEEIKKAAEKAGFKIVSISYDKQNKEVTIVIEKKK [E34Q] | 3.89 kcal/mol
DLVTIKVPLENLEEIKKAAEKAGFKIVSISYDKDNKEVTIVIEKKK [E34D] | 3.75 kcal/mol
DLVTIKVPLENLEEIKKAAEKAGFKIVSISYDKVNKEVTIVIEKKK [E34V] | 3.72 kcal/mol
DLVTIKVPLENLEEIKKAAEKAGFKIVSISYDKSNKEVTIVIEKKK [E34S] | 3.86 kcal/mol
